{
  "source": "patent US20050032064A1",
  "about": "(GENFIT, published 2005)",
  "proteins": {"B1": {"name": "human REV-ERB ALPHA receptor (receptor)", "chain": "MTTLDSNNNTGGVITYIGSSGSSPSRTSPESLYSDNSNGSFQSLTQGCPTYFPPSPTGSLTQDPARSFGSIPPSLSDDGSPSSSSSSSSSSSSFYNGSPPGSLQVAMEDSSRVSPSKSTSNITKLNGMVLLCKVCGDVASGFHYGVHACEGCKGFFRRSIQQNIQYKRCLKNENCSIVRINRNRCQQCRFKKCLSVGMSRDAVRFGRIPKREKQRMLAEMQSAMNLANNQLSSQCPLETSPTQHPTPGPMGPSPPPAPVPSPLVGFSQFPQQLTPPRSPSPEPTVEDVISQVARAHREIFTYAHDKLGSSPGNFNANHASGSPPATTPHRWENQGCPPAPNDNNTLAAQRHNEALNGLRQAPSSYPPTWPPGPAHHSCHQSNSNGHRLCPTHVYAAPEGKAPANSPRQGNSKNVLLACPMNMYPHGRSGRTVQEIWEDFSMSFTPAVREVVEFAKHIPGFRDLSQHDQVTLLKAGTFEVLMVRFASLFNVKDQTVMFLSRTTYSLQELGAMGMGDLLSAMFDFSEKLNSLALTEEELGLFTAVVLVSADRSGMENSASVEQLQETLLRALRALVLKNRPLETSRFTKLLLKLPDLRTLNNMHSEKLLSFRVDAQ", "notes": "also called hRev-erb alpha"}},
  "target": "the molecule itself",
  "assay": "electrophoretic mobility shift assay, in vitro translated protein on labeled Rev-DR2 oligonucleotide",
  "procedure": "The electrophoretic gel shift studies were carried out by using the indicated end-labeled oligonucleotides, in the presence of the murine PPAR GAMMA receptor, murine RXR ALPHA receptor, human REV-ERB ALPHA receptor produced by reticulocyte lysate, or non-programmed lysates (lysate). Binding competition experiments were performed by adding a 0, 10 or 100-fold excess of unlabeled Rev-DR2 oligonucleotide.\nThe pSG5-mPPAR-gamma, pSG5-mRXR-alpha and pSG5-hRev-erb alpha plasmids were transcribed in vitro with T7 polymerase and translated with the rabbit reticulocyte lysate system (Promega, Madison, Wis., USA). Gel shift experiments with REV-ERB ALPHA, PPAR GAMMA and/or RXR ALPHA proteins were carried out as previously described (Gervois, P. et al., Molecular Endocrinology 1999, 13(3): 400-409; Vu-Dac, N. et al., J. Biol. Chem. 1994, 269(49): 31012-31018). For the competition experiments, increasing quantities of the indicated unlabeled probe were added immediately before adding the labeled oligonucleotide. The complexes were resolved in 5% polyacrylamide gels using […] buffer (90 mM borate, 2.5 mM EDTA, pH 8.3) at room temperature. Gels were dried and exposed overnight at −70° C. on Rayon-X film (XOMAT-AR, Eastman Kodak, Rochester, N.Y., USA).\nLastly, binding of the PPAR GAMMA receptor to the Rev-DR2 site was studied. […]",
  "data": [
    {"protein": "B1", "values": [
      {"measurement": "binding result", "result": "binds"}
    ]}
  ]
}
